The values below come from patent publication US11499162B2, “Plants having increased tolerance to herbicides” (BASF SE, priority 2016, dated 2022).

The chains are these.
B1: Q71S: mutated TriA variant of SEQ ID NO: 2 (protein)
chain: MQTLSIQHGTLVTMDQYRRVLGDSWVHVQDGRIVALGVHAESVPPPADRVIDARGKVVLPGFINAHTHVNSILLRGGPSHGRQLYDWLFNVLYPGQKAMRPEDVAVAVRLYCAEAVRSGITTINDNADSAIYPGNIEAAMAVYGEVGVRVVYARMFFDRMDGRIQGYVDALKARSPQVELCSIMEETAVAKDRITALSDQYHGTAGGRISVWPAPAITPAVTVEGMRWAQAFARDRAVMWTLHMAESDHDERLHWMSPAEYMECYGLLDERLQVAHCVYFDRKDVRLLHRHNVKVASQVVSNAYLGSGVAPVPEMVERGMAVGIGTDDGNCNDSVNMIGDMKFMAHIHRAVHRDADVLTPEKILEMATIDGARSLGMDHEIGSIETGKRADLILLDLRHPQTTPHHHLAATIVFQAYGNEVDTVLIDGNVVMENRRLSFLPPERELAFLEEAQSRATAILQRANMVANPAWRSL
modifications: Pseudomonas
B2: Q71NL92A: mutated TriA variant of SEQ ID NO: 2 (protein)
chain: MQTLSIQHGTLVTMDQYRRVLGDSWVHVQDGRIVALGVHAESVPPPADRVIDARGKVVLPGFINAHTHVNNILLRGGPSHGRQLYDWLFNVAYPGQKAMRPEDVAVAVRLYCAEAVRSGITTINDNADSAIYPGNIEAAMAVYGEVGVRVVYARMFFDRMDGRIQGYVDALKARSPQVELCSIMEETAVAKDRITALSDQYHGTAGGRISVWPAPAITPAVTVEGMRWAQAFARDRAVMWTLHMAESDHDERLHWMSPAEYMECYGLLDERLQVAHCVYFDRKDVRLLHRHNVKVASQVVSNAYLGSGVAPVPEMVERGMAVGIGTDDGNCNDSVNMIGDMKFMAHIHRAVHRDADVLTPEKILEMATIDGARSLGMDHEIGSIETGKRADLILLDLRHPQTTPHHHLAATIVFQAYGNEVDTVLIDGNVVMENRRLSFLPPERELAFLEEAQSRATAILQRANMVANPAWRSL
modifications: Pseudomonas
B3: F157S: mutated TriA variant of SEQ ID NO: 2 (protein)
chain: MQTLSIQHGTLVTMDQYRRVLGDSWVHVQDGRIVALGVHAESVPPPADRVIDARGKVVLPGFINAHTHVNQILLRGGPSHGRQLYDWLFNVLYPGQKAMRPEDVAVAVRLYCAEAVRSGITTINDNADSAIYPGNIEAAMAVYGEVGVRVVYARMFSDRMDGRIQGYVDALKARSPQVELCSIMEETAVAKDRITALSDQYHGTAGGRISVWPAPAITPAVTVEGMRWAQAFARDRAVMWTLHMAESDHDERLHWMSPAEYMECYGLLDERLQVAHCVYFDRKDVRLLHRHNVKVASQVVSNAYLGSGVAPVPEMVERGMAVGIGTDDGNCNDSVNMIGDMKFMAHIHRAVHRDADVLTPEKILEMATIDGARSLGMDHEIGSIETGKRADLILLDLRHPQTTPHHHLAATIVFQAYGNEVDTVLIDGNVVMENRRLSFLPPERELAFLEEAQSRATAILQRANMVANPAWRSL
modifications: Pseudomonas
B4: Q71NL92AY93L: mutated TriA variant of SEQ ID NO: 2 (protein)
chain: MQTLSIQHGTLVTMDQYRRVLGDSWVHVQDGRIVALGVHAESVPPPADRVIDARGKVVLPGFINAHTHVNNILLRGGPSHGRQLYDWLFNVALPGQKAMRPEDVAVAVRLYCAEAVRSGITTINDNADSAIYPGNIEAAMAVYGEVGVRVVYARMFFDRMDGRIQGYVDALKARSPQVELCSIMEETAVAKDRITALSDQYHGTAGGRISVWPAPAITPAVTVEGMRWAQAFARDRAVMWTLHMAESDHDERLHWMSPAEYMECYGLLDERLQVAHCVYFDRKDVRLLHRHNVKVASQVVSNAYLGSGVAPVPEMVERGMAVGIGTDDGNCNDSVNMIGDMKFMAHIHRAVHRDADVLTPEKILEMATIDGARSLGMDHEIGSIETGKRADLILLDLRHPQTTPHHHLAATIVFQAYGNEVDTVLIDGNVVMENRRLSFLPPERELAFLEEAQSRATAILQRANMVANPAWRSL
modifications: Pseudomonas
B5: Q71NL92AD128G: mutated TriA variant of SEQ ID NO: 2 (protein)
chain: MQTLSIQHGTLVTMDQYRRVLGDSWVHVQDGRIVALGVHAESVPPPADRVIDARGKVVLPGFINAHTHVNNILLRGGPSHGRQLYDWLFNVAYPGQKAMRPEDVAVAVRLYCAEAVRSGITTINDNAGSAIYPGNIEAAMAVYGEVGVRVVYARMFFDRMDGRIQGYVDALKARSPQVELCSIMEETAVAKDRITALSDQYHGTAGGRISVWPAPAITPAVTVEGMRWAQAFARDRAVMWTLHMAESDHDERLHWMSPAEYMECYGLLDERLQVAHCVYFDRKDVRLLHRHNVKVASQVVSNAYLGSGVAPVPEMVERGMAVGIGTDDGNCNDSVNMIGDMKFMAHIHRAVHRDADVLTPEKILEMATIDGARSLGMDHEIGSIETGKRADLILLDLRHPQTTPHHHLAATIVFQAYGNEVDTVLIDGNVVMENRRLSFLPPERELAFLEEAQSRATAILQRANMVANPAWRSL
modifications: Pseudomonas
B6: Q71NL88AL92A: mutated TriA variant of SEQ ID NO: 2 (protein)
chain: MQTLSIQHGTLVTMDQYRRVLGDSWVHVQDGRIVALGVHAESVPPPADRVIDARGKVVLPGFINAHTHVNNILLRGGPSHGRQLYDWAFNVAYPGQKAMRPEDVAVAVRLYCAEAVRSGITTINDNADSAIYPGNIEAAMAVYGEVGVRVVYARMFFDRMDGRIQGYVDALKARSPQVELCSIMEETAVAKDRITALSDQYHGTAGGRISVWPAPAITPAVTVEGMRWAQAFARDRAVMWTLHMAESDHDERLHWMSPAEYMECYGLLDERLQVAHCVYFDRKDVRLLHRHNVKVASQVVSNAYLGSGVAPVPEMVERGMAVGIGTDDGNCNDSVNMIGDMKFMAHIHRAVHRDADVLTPEKILEMATIDGARSLGMDHEIGSIETGKRADLILLDLRHPQTTPHHHLAATIVFQAYGNEVDTVLIDGNVVMENRRLSFLPPERELAFLEEAQSRATAILQRANMVANPAWRSL
modifications: Pseudomonas
B7: Q71V: mutated TriA variant of SEQ ID NO: 2 (protein)
chain: MQTLSIQHGTLVTMDQYRRVLGDSWVHVQDGRIVALGVHAESVPPPADRVIDARGKVVLPGFINAHTHVNVILLRGGPSHGRQLYDWLFNVLYPGQKAMRPEDVAVAVRLYCAEAVRSGITTINDNADSAIYPGNIEAAMAVYGEVGVRVVYARMFFDRMDGRIQGYVDALKARSPQVELCSIMEETAVAKDRITALSDQYHGTAGGRISVWPAPAITPAVTVEGMRWAQAFARDRAVMWTLHMAESDHDERLHWMSPAEYMECYGLLDERLQVAHCVYFDRKDVRLLHRHNVKVASQVVSNAYLGSGVAPVPEMVERGMAVGIGTDDGNCNDSVNMIGDMKFMAHIHRAVHRDADVLTPEKILEMATIDGARSLGMDHEIGSIETGKRADLILLDLRHPQTTPHHHLAATIVFQAYGNEVDTVLIDGNVVMENRRLSFLPPERELAFLEEAQSRATAILQRANMVANPAWRSL
modifications: Pseudomonas
B8: Q71NL92AY93F: mutated TriA variant of SEQ ID NO: 2 (protein)
chain: MQTLSIQHGTLVTMDQYRRVLGDSWVHVQDGRIVALGVHAESVPPPADRVIDARGKVVLPGFINAHTHVNNILLRGGPSHGRQLYDWLFNVAFPGQKAMRPEDVAVAVRLYCAEAVRSGITTINDNADSAIYPGNIEAAMAVYGEVGVRVVYARMFFDRMDGRIQGYVDALKARSPQVELCSIMEETAVAKDRITALSDQYHGTAGGRISVWPAPAITPAVTVEGMRWAQAFARDRAVMWTLHMAESDHDERLHWMSPAEYMECYGLLDERLQVAHCVYFDRKDVRLLHRHNVKVASQVVSNAYLGSGVAPVPEMVERGMAVGIGTDDGNCNDSVNMIGDMKFMAHIHRAVHRDADVLTPEKILEMATIDGARSLGMDHEIGSIETGKRADLILLDLRHPQTTPHHHLAATIVFQAYGNEVDTVLIDGNVVMENRRLSFLPPERELAFLEEAQSRATAILQRANMVANPAWRSL
modifications: Pseudomonas

The format of this series is biochemical. The conditions noted are these: pH 7.2. As to the method: EXAMPLE 3: Protein Purification. TriA and variants thereof were produced in E. coli BL21(DE3) Gold (Agilent Technologies, Germany). Therefore E. coli was transformed with appropriate pET24d N-HIS tag expression vector and chaperone plasmid pGro7 (chaperones groEL and groES). Bacterial strains were grown at 30° C. in 100 mL LB for 20 h and protein expression induced with 0.1 mM IPTG at 25° C. for 20 hs. Cells were harvested by centrifugation at 3000 rpm at 4° C. for 20 min, resuspended in Bug Buster protein extraction reagent (Novagen, Germany) according to manufactures instructions. Lysates were clarified by centrifugation. Samples of bovine serum albumin ([…]) were loaded onto each gel analyzed by densitometry to provide an internal standard. Protein determinations were verified using Coomassie protein assay dye, according to manufactures instruction (Thermo Scientific; USA). The HIS-tagged enzymes were purified by metal ion affinity chromatography using Ni-IDA 1000 kit (Macherey-Nagel, Germany) following manufactures instructions. Protein purity was accessed by SDS-PAGE using NuPAGE Novex 4-12% Bis-Tris pre-cast gels (Life Technologies; USA) stained with Coomassie Brilliant Blue (Serva, Germany). Protein concentrations were estimated by measuring absorbance at 280 nm using Lambda Bio+(Perkin Elmer, USA). EXAMPLE 4: Enzyme kinetics. Resting cell suspension containing triA gene were incubated with various azines, melamine and atrazine and the culture filtrate was analyzed by UPLC-HR-MS. Substrates were obtained either from Sigma-Aldrich or synthesized internally. Synthetic standards and enzyme reaction products were analysed by UPLC-HR-MS (Thermo/Dionex UPLC UltiMate3000 coupled to a QExactive high resolution mass spectrometer). A Waters Acquity HSS T3 column (2.1 mm; 100 mm; […]) was used with a mobile phase water/acetonitrile (0.1% formic acid) with a flow rate of […]. Enzymes were used solved 25 mM sodium phosphate buffer (pH 7.2) with substrate concentration in the range of 1 nM to 10 nM at 30° C. Over time, the original azine peak disappeared whereas the formed OH-Metabolite (reaction product) increased. The product was identified by determination of the exact formula and by analysis of the accurate MS-MS fragments. Moreover for some of the formed products authentic standards were co-eluted. Degradation in % was calculated against the cells harboring the empty vector as control.
Regarding B1, the “Degradation in % of 6-cyclopentyl-N4-(2,3,4,5,6-pentafluorophenyl)-1,3,5-triazine-2,4-diamine” value was 0% and the “Degradation in % of Melamine” value stood at 43%.
On the same counts, the results for B2 are 99% and 87%.
For the molecule B3, the “Degradation in % of 6-cyclopentyl-N4-(2,3,4,5,6-pentafluorophenyl)-1,3,5-triazine-2,4-diamine” value is listed as 0% and the “Degradation in % of Melamine” value came to 10%.
The corresponding values for B4 are 100% and 99%.
The corresponding values for B5 are 61% and 0%.
Turning to B6, the “Degradation in % of 6-cyclopentyl-N4-(2,3,4,5,6-pentafluorophenyl)-1,3,5-triazine-2,4-diamine” value came out at 64% and the “Degradation in % of Melamine” value was 40%.
With B7, the “Degradation in % of 6-cyclopentyl-N4-(2,3,4,5,6-pentafluorophenyl)-1,3,5-triazine-2,4-diamine” value was 0% and the “Degradation in % of Melamine” value is 0%.
Take B8: the “Degradation in % of 6-cyclopentyl-N4-(2,3,4,5,6-pentafluorophenyl)-1,3,5-triazine-2,4-diamine” value came out at 100% and the “Degradation in % of Melamine” value is reported as 78%.
